± gives the standard error. This sample holds only a part of the variants without activity.
B1: glmS ribozyme (parent)
chain: AUAAAAGCGCCAGAACUACAGAAAUGUAGUUGACGAGGAGGAGGUUUAUCGAAUUUUCGGCGGAUGCCUCCAAA

Tests used:
Settings in all cases: with glucosamine-6-phosphate
glucosamine-6-phosphate [1] = variants of: B1; assay: self-cleavage kobs at 40 uM GlcN6P; higher = faster cleavage; RNA array
Method in brief: (§1)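 Glucosamine-6-phosphate in HEPES/KCl/Mg(OAc)2 buffer, at 40 μM to 10 mM, was flowed over barcoded ribozyme variants transcribed in situ by E. coli RNA polymerase on sequenced MiSeq chips. Tracking was through a hybridised Cy3 probe at 37 °C. kobs, kcat and KM came from exponential decay fits and weighted Michaelis–Menten fits of normalised per-tile medians.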

glucosamine-6-phosphate [2] = variants of: B1; assay: self-cleavage kobs at 10000 uM GlcN6P; higher = faster cleavage; RNA array
Method in brief: as §1

glucosamine-6-phosphate [3] = variants of: B1; assay: self-cleavage kobs at 640 uM GlcN6P; higher = faster cleavage; RNA array
Method in brief: as §1

glucosamine-6-phosphate [4] = variants of: B1; assay: self-cleavage kobs at 2500 uM GlcN6P; higher = faster cleavage; RNA array
Method in brief: as §1

glucosamine-6-phosphate [5] = variants of: B1; assay: self-cleavage kobs at 160 uM GlcN6P; higher = faster cleavage; RNA array
Method in brief: as §1

Variant	self-cleavage kobs at 40 uM GlcN6P (glucosamine-6-phosphate [1]) [s⁻¹]	self-cleavage kobs at 10000 uM GlcN6P (glucosamine-6-phosphate [2]) [s⁻¹]	self-cleavage kobs at 640 uM GlcN6P (glucosamine-6-phosphate [3]) [s⁻¹]	self-cleavage kobs at 2500 uM GlcN6P (glucosamine-6-phosphate [4]) [s⁻¹]	self-cleavage kobs at 160 uM GlcN6P (glucosamine-6-phosphate [5]) [s⁻¹]
A6G C16U U30A G43U G62U C70A	< 1e-05	< 1e-05			
G7A A14U C58A C68G	0.000142 ± 4e-05	0.00011 ± 2.5e-05	0.00047 ± 0.00023		
G13A C16A A52U	< 1e-05	< 1e-05		< 1e-05	
G37U U45G U46C G63A C68A	< 1e-05	< 1e-05			
U55C G62A	< 1e-05	< 1e-05	< 1e-05	< 1e-05	< 1e-05
C10G A36C G43C	< 1e-05	< 1e-05	< 1e-05		
A36U U54C	< 1e-05		< 1e-05		< 1e-05
G13A C16U G37U C67U	< 1e-05				
A12U A36G U54A	< 1e-05				
A42C G63A C67G	< 1e-05				
G44C C67A	0.000178 ± 2.3e-05	0.00668 ± 0.0019	0.00196 ± 0.00037	0.00486 ± 0.0014	0.00032 ± 9e-05
C10A A14C U45C C68U	< 1e-05	< 1e-05	< 1e-05	< 1e-05	
G9C C11A	< 1e-05				< 1e-05
A42C C61U C71A	< 1e-05				
U30C A39C G41U	< 1e-05	< 1e-05			
C11G G43C A64U	< 1e-05	< 1e-05			
G37C U56G	< 1e-05				< 1e-05
G41A A48G	< 1e-05		< 1e-05	< 1e-05	< 1e-05
U47A U56C C70G	< 1e-05				
C8G G60U A64U	< 1e-05	< 1e-05			
C11U A48U G51U	< 1e-05				
G9U A15U G41A U55A G60A	< 1e-05	< 1e-05			
G51C U55G	< 1e-05	< 1e-05	< 1e-05	< 1e-05	< 1e-05

Variant	self-cleavage kobs at 40 uM GlcN6P (glucosamine-6-phosphate [1]) [s⁻¹]	self-cleavage kobs at 10000 uM GlcN6P (glucosamine-6-phosphate [2]) [s⁻¹]	self-cleavage kobs at 640 uM GlcN6P (glucosamine-6-phosphate [3]) [s⁻¹]	self-cleavage kobs at 2500 uM GlcN6P (glucosamine-6-phosphate [4]) [s⁻¹]	self-cleavage kobs at 160 uM GlcN6P (glucosamine-6-phosphate [5]) [s⁻¹]
C50G U65C C67U	6.84e-05 ± 1.4e-05	9.96e-05 ± 1.4e-05		0.000106 ± 2e-05	
G32U A52G C58A C70A	5.29e-05 ± 2.5e-05	4.31e-05 ± 2e-05			
A42G G44A A48G U57C C67A	< 1e-05				
G41C A48U	< 1e-05		< 1e-05		< 1e-05
C58G G60C	< 1e-05	< 1e-05	< 1e-05	< 1e-05	< 1e-05
G7A G40A A53G G60C C68U	< 1e-05		< 1e-05	< 1e-05	
C34A G35U G37A U49A U56C	< 1e-05	< 1e-05	< 1e-05	< 1e-05	
C10U G40U U49C C70A	< 1e-05	< 1e-05			
U46C G63U C70A	< 1e-05				
C8A G38A	< 1e-05	< 1e-05	< 1e-05	< 1e-05	< 1e-05
A33C G38C	< 1e-05		< 1e-05	< 1e-05	< 1e-05
G41U C58G	< 1e-05	< 1e-05	< 1e-05	< 1e-05	< 1e-05
A12U G41U C61U	< 1e-05	< 1e-05	< 1e-05	< 1e-05	< 1e-05
A12C A36G A64C	< 1e-05	< 1e-05	< 1e-05		
A14U U30C C61U C68A	< 1e-05				
C8G G43U U65A C71G	< 1e-05	< 1e-05	< 1e-05	< 1e-05	
C8U G62U U69G	0.00021 ± 7.2e-05	0.000358 ± 0.00015			
G38C C67U	< 1e-05	< 1e-05		< 1e-05	
A14U G37U C70A	< 1e-05				
A6C G51A	< 1e-05	< 1e-05		< 1e-05	< 1e-05
G7U C10U G13C A52G	< 1e-05				
G29C A48U	< 1e-05				< 1e-05
A15G G59C	< 1e-05		< 1e-05		< 1e-05

Variant	self-cleavage kobs at 40 uM GlcN6P (glucosamine-6-phosphate [1]) [s⁻¹]	self-cleavage kobs at 10000 uM GlcN6P (glucosamine-6-phosphate [2]) [s⁻¹]	self-cleavage kobs at 640 uM GlcN6P (glucosamine-6-phosphate [3]) [s⁻¹]	self-cleavage kobs at 2500 uM GlcN6P (glucosamine-6-phosphate [4]) [s⁻¹]	self-cleavage kobs at 160 uM GlcN6P (glucosamine-6-phosphate [5]) [s⁻¹]
G7C A14U	< 1e-05		< 1e-05	< 1e-05	< 1e-05
G29C C58G	< 1e-05	4.93e-05 ± 1.5e-05		6.23e-05 ± 2.1e-05	
G13A G32C G43U A48G U69A	< 1e-05				
C16A A39U G51U	< 1e-05				
C50A U57G C68U	< 1e-05	< 1e-05			
A42U G63U	< 1e-05	< 1e-05		< 1e-05	< 1e-05
C11G U56G A64U	< 1e-05			< 1e-05	< 1e-05
G37U G41A	< 1e-05	< 1e-05	< 1e-05		< 1e-05
G29U A36G A48C C71G	< 1e-05				
A6G G32A U49G U55A	< 1e-05	< 1e-05			
U54G C70U	0.00112 ± 0.00013		0.00544 ± 0.001		0.000836 ± 0.00011
U31G U54A	0.000582 ± 0.00015	0.00833 ± 0.002		0.00634 ± 0.0018	
A36C A64C	< 1e-05	< 1e-05	< 1e-05	< 1e-05	
G40C A64C	< 1e-05				< 1e-05
U47G C67U	0.000141 ± 2.6e-05	0.00343 ± 0.00067	0.00064 ± 8.6e-05	0.00125 ± 0.0002	0.000305 ± 5.6e-05
G44A U65G	< 1e-05				< 1e-05
G29U U30G U54A	9.91e-05 ± 2.6e-05	0.00383 ± 0.00068			
G13C U57G	< 1e-05				
U31C G40A G59U	< 1e-05	< 1e-05	< 1e-05	< 1e-05	
A14G C16G G38U C50G C67A	0.000102 ± 1.6e-05	9.71e-05 ± 2.1e-05			
C8G G9A G29U U56A A64G C70A	< 1e-05				
G62A A64U	< 1e-05	< 1e-05	< 1e-05		
G29C C70U	8.66e-05 ± 9.8e-06	0.000815 ± 0.00013	0.000243 ± 2.2e-05	0.00103 ± 0.00018	0.000143 ± 1.8e-05

Variant	self-cleavage kobs at 40 uM GlcN6P (glucosamine-6-phosphate [1]) [s⁻¹]	self-cleavage kobs at 10000 uM GlcN6P (glucosamine-6-phosphate [2]) [s⁻¹]	self-cleavage kobs at 640 uM GlcN6P (glucosamine-6-phosphate [3]) [s⁻¹]	self-cleavage kobs at 2500 uM GlcN6P (glucosamine-6-phosphate [4]) [s⁻¹]	self-cleavage kobs at 160 uM GlcN6P (glucosamine-6-phosphate [5]) [s⁻¹]
A15C U55A C61G	< 1e-05	< 1e-05			
A12U G29C	0.00079 ± 0.00011	0.0212 ± 0.0041	0.00446 ± 0.00073	0.00717 ± 0.0026	0.000653 ± 0.00013
U55G U56G G62C	< 1e-05	< 1e-05			
C10G G44U C68U C70U	< 1e-05	< 1e-05			
G13A C34A A36U C68G	8.42e-05 ± 3e-05	6.2e-05 ± 2.4e-05			
A12U A39U U54C	0.000713 ± 0.00016	0.0366 ± 0.01			
A14U G60U	< 1e-05	< 1e-05	< 1e-05	< 1e-05	< 1e-05
G60C A64U	< 1e-05	< 1e-05	< 1e-05	< 1e-05	< 1e-05
U31G C61G U65C	< 1e-05				
C8U G41A G59C	< 1e-05	< 1e-05			
C34A C68U	< 1e-05	< 1e-05	< 1e-05	< 1e-05	< 1e-05
G38U C58U	< 1e-05	< 1e-05		< 1e-05	
C50U U54A	< 1e-05	5.02e-05 ± 9.2e-06			< 1e-05
G9U A39U C68U	< 1e-05				
C11A A12C G44C U49A	< 1e-05	< 1e-05	< 1e-05	< 1e-05	< 1e-05
A14G U69A	0.000118 ± 2.8e-05	0.000397 ± 9.9e-05	0.000315 ± 9.3e-05	0.000142 ± 2.2e-05	0.000124 ± 2.5e-05
U47G U56G C61U C67G C70U	0.000123 ± 6.1e-05	4.99e-05 ± 1.9e-05	0.000281 ± 8.9e-05		
C8G U47A A48C C70G	< 1e-05	< 1e-05	< 1e-05		< 1e-05
G13U G37A	< 1e-05	6.96e-05 ± 8.5e-06			< 1e-05
A6C G35U	< 1e-05	< 1e-05		< 1e-05	< 1e-05
C67G C70G	< 1e-05	< 1e-05			
A14U C50G C67U	0.00027 ± 6.3e-05	0.000112 ± 1.9e-05	0.000192 ± 5.6e-05	0.000193 ± 5.8e-05	0.000222 ± 7e-05
A42U G62U	< 1e-05		< 1e-05	< 1e-05	< 1e-05

Source: the supplement of paper PMC7125110
